Results from US10829799 (UNIVERSITY COURT OF THE UNIVERSITY OF DUNDEE, dated 2020).

Molecular target: T1, NAE (NEDD8 E1; Dac-NAE1-UBA3) (UniProt Q13564 1-534; Q8TBC4 1-463)
T1 construct: Co-expressed in Sf21 cells from pFastBacDual; not shown: Dac tag
T1 sequence (looked up) 1: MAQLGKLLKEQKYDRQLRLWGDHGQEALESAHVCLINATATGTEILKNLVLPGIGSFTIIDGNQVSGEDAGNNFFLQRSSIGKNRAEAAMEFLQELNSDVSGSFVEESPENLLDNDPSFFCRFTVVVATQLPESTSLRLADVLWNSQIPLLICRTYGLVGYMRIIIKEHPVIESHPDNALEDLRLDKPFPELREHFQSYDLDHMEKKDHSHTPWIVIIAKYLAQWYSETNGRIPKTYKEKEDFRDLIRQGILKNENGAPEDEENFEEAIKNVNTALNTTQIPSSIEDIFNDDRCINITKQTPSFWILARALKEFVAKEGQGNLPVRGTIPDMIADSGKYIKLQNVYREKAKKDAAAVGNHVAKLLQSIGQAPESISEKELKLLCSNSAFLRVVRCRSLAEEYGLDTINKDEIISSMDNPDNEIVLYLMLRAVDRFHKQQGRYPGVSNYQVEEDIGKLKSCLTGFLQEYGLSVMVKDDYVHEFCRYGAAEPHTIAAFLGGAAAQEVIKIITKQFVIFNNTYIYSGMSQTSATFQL
T1 sequence (looked up) 2: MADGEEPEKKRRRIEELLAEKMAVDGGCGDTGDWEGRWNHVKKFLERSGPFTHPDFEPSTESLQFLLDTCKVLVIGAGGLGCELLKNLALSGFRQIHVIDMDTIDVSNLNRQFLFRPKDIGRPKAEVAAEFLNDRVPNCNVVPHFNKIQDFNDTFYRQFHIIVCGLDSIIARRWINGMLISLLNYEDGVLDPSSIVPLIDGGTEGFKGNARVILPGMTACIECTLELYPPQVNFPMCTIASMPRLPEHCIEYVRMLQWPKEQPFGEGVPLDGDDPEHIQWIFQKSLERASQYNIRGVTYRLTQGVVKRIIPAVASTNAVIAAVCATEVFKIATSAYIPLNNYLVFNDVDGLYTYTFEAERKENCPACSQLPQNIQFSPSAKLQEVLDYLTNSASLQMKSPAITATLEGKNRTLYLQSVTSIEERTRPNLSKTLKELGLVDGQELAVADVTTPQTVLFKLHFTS
Test: covalent activity-based labelling, SDS-PAGE (FIG. 3C)
Description: E2 probes (14 μM) were mixed with E1 enzyme (3.5 μM) and diluted 10× reaction buffer (500 mM Na_2HPO_4 pH 8) or 10×Ub-ATP buffer (500 mM Na_2HPO_4 pH 8, 20 μM ubiquitin, 20 mM ATP) to a final volume of 15-50 μL. Reactions were incubated at 30° C. and 15 μL aliquots were taken at 1 and 5 h time points which were quenched with 5 μL of reducing SDS-gel loading buffer (NuPAGE LDS loading buffer (4×), 715 mM 2-mercaptoethanol). The quenched reaction solutions were boiled for 5 minute at 100° C. and then 4 μL was analysed by SDS-PAGE (NuPAGE Bis-Tris, 4-12%).

binding result: binds
B1: UBE2M-=CN (enzyme)
chain: MGSSHHHHHHSSGLEVLFQGPGSPEFPGVDSKAAAMIKLFSLKQQKKEEESAGGTKGSSKKASAAQLRIQKDINELNLPKTCDISFSDPDDLLNFKLVICPDEGFYKSGKFVFSFKVGQGYPHDPPKVKCETMVYHPNIDLEGNVCLNILREDWKPVLTINSIIYGLQYLFLEPNPEDPLNKEAAEVLQNNRRLFEQNVQRSMRGGYIGSTYFERCLK
modifications: labelled with TDMA 1 (thioacrylonitrile); 4 of 5 cysteines modified
notes: Legend notes a double band due to degradation of UBE2M
